Laboratory results from patent publication US20070224205A1.

B1: STF2.EIII+ (protein)
chain: MAQVINTNSLSLLTQNNLNKSQSALGTAIERLSSGLRINSAKDDAAGQAIANRFTANIKGLTQASRNANDGISIAQTTEGALNEINNNLQRVRELAVQSANSTNSQSDLDSIQAEITQRLNEIDRVSGQTQFNGVKVLAQDNTLTIQVGANDGETIDIDLKQINSQTLGLDSLNVQKAYDVKDTAVTTKAYANNGTTLDVSGLDDAAIKAATGGTNGTASVTGGAVKFDADNNKYFVTIGGFTGADAAKNGDYEVNVATDGTVTLAAGATKTTMPAGATTKTEVQELKDTPAVVSADAKNALIAGGVDATDANGAELVKMSYTDKNGKTIEGGYALKAGDKYYAADYDEATGAIKAKTTSYTAADGTTKTAANQLGGVDGKTEVVTIDGKTYNASKAAGHDFKAQPELAEAAAKTTENPLQKIDAALAQVDALRSDLGAVQNRFNSAITNLGNTVNNLSEARSRIEDSDYATEVSNMSRAQILQQAGTSVLAQANQVPQNVLSLLRKGNSKLEGQLEFPRTSMEKLQLKGTTYGVCSKAFKFLGTPADTGHGTVVLELQYTGTDGPCKVPISSVASLNDLTPVGRLVTVNPFVSVATANAKVLIELEPPFGDSYIVVGRGEQQINHHWHKSGSSIGK
B2: STF2.HA1-3(PR8), produced in E. coli (protein)
chain: MAQVINTNSLSLLTQNNLNKSQSALGTAIERLSSGLRINSAKDDAAGQAIANRFTANIKGLTQASRNANDGISIAQTTEGALNEINNNLQRVRELAVQSANSTNSQSDLDSIQAEITQRLNEIDRVSGQTQFNGVKVLAQDNTLTIQVGANDGETIDIDLKQINSQTLGLDSLNVQKAYDVKDTAVTTKAYANNGTTLDVSGLDDAAIKAATGGTNGTASVTGGAVKFDADNNKYFVTIGGFTGADAAKNGDYEVNVATDGTVTLAAGATKTTMPAGATTKTEVQELKDTPAVVSADAKNALIAGGVDATDANGAELVKMSYTDKNGKTIEGGYALKAGDKYYAADYDEATGAIKAKTTSYTAADGTTKTAANQLGGVDGKTEVVTIDGKTYNASKAAGHDFKAQPELAEAAAKTTENPLQKIDAALAQVDALRSDLGAVQNRFNSAITNLGNTVNNLSEARSRIEDSDYATEVSNMSRAQILQQAGTSVLAQANQVPQNVLSLLANSENGICYPGDFIDYEELREQLSSVSSFERFEIFPKESSWPNHNTNGVTAACSHEGKSSFYRNLLWLTEKEGSYPKLKNSYVNKKGKEVLVLWGIHHPPNSKEQQNLYQNENAYVSVVTSNYNRRFTPEIAERPKVRDQAGRMNYYWTLLKPGDTIIFEANGNLIAPMYAFALSRG
B3: STF2.HA1-2His(PR8), produced in Baculovirus (protein)
chain: AQVINTNSLSLLTQNNLNKSQSALGTAIERLSSGLRINSAKDDAAGQAIANRFTANIKGLTQASRNANDGISIAQTTEGALNEINNNLQRVRELAVQSANSTNSQSDLDSIQAEITQRLNEIDRVSGQTQFNGVKVLAQDNTLTIQVGANDGETIDIDLKQINSQTLGLDSLNVQKAYDVKDTAVTTKAYANNGTTLDVSGLDDAAIKAATGGTNGTASVTGGAVKFDADNNKYFVTIGGFTGADAAKNGDYEVNVATDGTVTLAAGATKTTMPAGATTKTEVQELKDTPAVVSADAKNALIAGGVDATDANGAELVKMSYTDKNGKTIEGGYALKAGDKYYAADYDEATGAIKAKTTSYTAADGTTKTAANQLGGVDGKTEVVTIDGKTYNASKAAGHDFKAQPELAEAAAKTTENPLQKIDAALAQVDALRSDLGAVQNRFNSAITNLGNTVNNLSEARSRIEDSDYATEVSNMSRAQILQQAGTSVLAQANQVPQNVLSLLASGSGSGSKGIAPQLGKCNIAGWLLGNPECDPLLPVRSWSYIVETPNSENGICYPGDFIDYEELREQLSSVSSFERFEIFPKESSWPNHNTNGVTAACSHEGKSSFYRNLLWLTEKEGSYPKLKNSYVNKKGKEVLVLWGIHHPPNSKEQQNLYQNENAYVSVVTSNYNRRFTPEIAERPKVRDQAGRMNYYWTLLKPGDTIIFEANGNLIAPMYAFALSRGFGSGIITSHHHHHH
B4: ngSTF2.HA1-2mutHis(PR8) (protein)
chain: AQVINTNSLSLLTQNNLQKSQSALGTAIERLSSGLRINSAKDDAAGQAIANRFTANIKGLTQASRNANDGISIAQTTEGALNEINNNLQRVRELAVQSAQSTNSQSDLDSIQAEITQRLNEIDRVSGQTQFNGVKVLAQDNTLTIQVGANDGETIDIDLKQINSQTLGLDSLNVQKAYDVKDTAVTTKAYANQGTTLDVSGLDDAAIKAATGGTQGTASVTGGAVKFDADNNKYFVTIGGFTGADAAKNGDYEVNVATDGTVTLAAGATKTTMPAGATTKTEVQELKDTPAVVSADAKNALIAGGVDATDANGAELVKMSYTDKNGKTIEGGYALKAGDKYYAADYDEATGAIKAKTTSYTAADGTTKTAANQLGGVDGKTEVVTIDGKTYQASKAAGHDFKAQPELAEAAAKTTENPLQKIDAALAQVDALRSDLGAVQNRFNSAITNLGNTVNQLSEARSRIEDSDYATEVSQMSRAQILQQAGTSVLAQANQVPQNVLSLLASGSGSGSKGAAPQLGKCNIAGWLLGNPECDPLLPVRSWSDIAETPNSENGICYPGDFIDYEELREQLSSVSSFERFEIFPKESSWPNHNTNGVTAACSHEGKSSFYRNLLWLTEKEGSYPKLKNSYVNKKGKEVLVLWGIHHPPNSKEQQNLYQNENAYVSVVTSNYNRRFTPEIAERPKVRDQAGRMNYYWTLLKPGDTIIFEANGNLIAPMYAFALSRGFGSGIITSHHHHHH
B5: STF2.HA1-1His(PR8), produced in E. coli (protein)
chain: MAQVINTNSLSLLTQNNLNKSQSALGTAIERLSSGLRINSAKDDAAGQAIANRFTANIKGLTQASRNANDGISIAQTTEGALNEINNNLQRVRELAVQSANSTNSQSDLDSIQAEITQRLNEIDRVSGQTQFNGVKVLAQDNTLTIQVGANDGETIDIDLKQINSQTLGLDSLNVQKAYDVKDTAVTTKAYANNGTTLDVSGLDDAAIKAATGGTNGTASVTGGAVKFDADNNKYFVTIGGFTGADAAKNGDYEVNVATDGTVTLAAGATKTTMPAGATTKTEVQELKDTPAVVSADAKNALIAGGVDATDANGAELVKMSYTDKNGKTIEGGYALKAGDKYYAADYDEATGAIKAKTTSYTAADGTTKTAANQLGGVDGKTEVVTIDGKTYNASKAAGHDFKAQPELAEAAAKTTENPLQKIDAALAQVDALRSDLGAVQNRFNSAITNLGNTVNNLSEARSRIEDSDYATEVSNMSRAQILQQAGTSVLAQANQVPQNVLSLLASHNGKLCRLKGIAPLQLGKCNIAGWLLGNPECDPLLPVRSWSYIVETPNSENGICYPGDFIDYEELREQLSSVSSFERFEIFPKESSWPNHNTNGVTAACSHEGKSSFYRNLLWLTEKEGSYPKLKNSYVNKKGKEVLVLWGIHHPPNSKEQQNLYQNENAYVSVVTSNYNRRFTPEIAERPKVRDQAGRMNYYWTLLKPGDTIIFEANGNLIAPMYAFALSRGFGSGIITSNASMHECNTKCQTPLGAINSSLPYQNIHPVTIGECPKYVRHHHHHH
B6: STF2.HA1-2(PR8), produced in E. coli (protein)
chain: MAQVINTNSLSLLTQNNLNKSQSALGTAIERLSSGLRINSAKDDAAGQAIANRFTANIKGLTQASRNANDGISIAQTTEGALNEINNNLQRVRELAVQSANSTNSQSDLDSIQAEITQRLNEIDRVSGQTQFNGVKVLAQDNTLTIQVGANDGETIDIDLKQINSQTLGLDSLNVQKAYDVKDTAVTTKAYANNGTTLDVSGLDDAAIKAATGGTNGTASVTGGAVKFDADNNKYFVTIGGFTGADAAKNGDYEVNVATDGTVTLAAGATKTTMPAGATTKTEVQELKDTPAVVSADAKNALIAGGVDATDANGAELVKMSYTDKNGKTIEGGYALKAGDKYYAADYDEATGAIKAKTTSYTAADGTTKTAANQLGGVDGKTEVVTIDGKTYNASKAAGHDFKAQPELAEAAAKTTENPLQKIDAALAQVDALRSDLGAVQNRFNSAITNLGNTVNNLSEARSRIEDSDYATEVSNMSRAQILQQAGTSVLAQANQVPQNVLSLLAKGIAPLQLGKCNIAGWLLGNPECDPLLPVRSWSYIVETPNSENGICYPGDFIDYEELREQLSSVSSFERFEIFPKESSWPNHNTNGVTAACSHEGKSSFYRNLLWLTEKEGSYPKLKNSYVNKKGKEVLVLWGIHHPPNSKEQQNLYQNENAYVSVVTSNYNRRFTPEIAERPKVRDQAGRMNYYWTLLKPGDTIIFEANGNLIAPMYAFALSRGFGSGIITS
B7: STF2.HA1-2(PR8)mut (protein)
chain: MAQVINTNSLSLLTQNNLNKSQSALGTAIERLSSGLRINSAKDDAAGQAIANRFTANIKGLTQASRNANDGISIAQTTEGALNEINNNLQRVRELAVQSANSTNSQSDLDSIQAEITQRLNEIDRVSGQTQFNGVKVLAQDNTLTIQVGANDGETIDIDLKQINSQTLGLDSLNVQKAYDVKDTAVTTKAYANNGTTLDVSGLDDAAIKAATGGTNGTASVTGGAVKFDADNNKYFVTIGGFTGADAAKNGDYEVNVATDGTVTLAAGATKTTMPAGATTKTEVQELKDTPAVVSADAKNALIAGGVDATDANGAELVKMSYTDKNGKTIEGGYALKAGDKYYAADYDEATGAIKAKTTSYTAADGTTKTAANQLGGVDGKTEVVTIDGKTYNASKAAGHDFKAQPELAEAAAKTTENPLQKIDAALAQVDALRSDLGAVQNRFNSAITNLGNTVNNLSEARSRIEDSDYATEVSNMSRAQILQQAGTSVLAQANQVPQNVLSLLAKGAAPLQLGKCNIAGWLLGNPECDPLLPVRSWSDIAETPNSENGICYPGDFIDYEELREQLSSVSSFERFEIFPKESSWPNHNTNGVTAACSHEGKSSFYRNLLWLTEKEGSYPKLKNSYVNKKGKEVLVLWGIHHPPNSKEQQNLYQNENAYVSVVTSNYNRRFTPEIAERPKVRDQAGRMNYYWTLLKPGDTIIFEANGNLIAPMYAFALSRGFGSGIITS
B8: STF2.HA1-2mutHis(PR8), produced in Baculovirus (protein)
chain: AQVINTNSLSLLTQNNLNKSQSALGTAIERLSSGLRINSAKDDAAGQAIANRFTANIKGLTQASRNANDGISIAQTTEGALNEINNNLQRVRELAVQSANSTNSQSDLDSIQAEITQRLNEIDRVSGQTQFNGVKVLAQDNTLTIQVGANDGETIDIDLKQINSQTLGLDSLNVQKAYDVKDTAVTTKAYANNGTTLDVSGLDDAAIKAATGGTNGTASVTGGAVKFDADNNKYFVTIGGFTGADAAKNGDYEVNVATDGTVTLAAGATKTTMPAGATTKTEVQELKDTPAVVSADAKNALIAGGVDATDANGAELVKMSYTDKNGKTIEGGYALKAGDKYYAADYDEATGAIKAKTTSYTAADGTTKTAANQLGGVDGKTEVVTIDGKTYNASKAAGHDFKAQPELAEAAAKTTENPLQKIDAALAQVDALRSDLGAVQNRFNSAITNLGNTVNNLSEARSRIEDSDYATEVSNMSRAQILQQAGTSVLAQANQVPQNVLSLLASGSGSGSKGAAPLQLGKCNIAGWLLGNPECDPLLPVRSWSDIAETPNSENGICYPGDFIDYEELREQLSSVSSFERFEIFPKESSWPNHNTNGVTAACSHEGKSSFYRNLLWLTEKEGSYPKLKNSYVNKKGKEVLVLWGIHHPPNSKEQQNLYQNENAYVSVVTSNYNRRFTPEIAERPKVRDQAGRMNYYWTLLKPGDTIIFEANGNLIAPMYAFALSRGFGSGIITSHHHHHH

Molecular target: Toll-like Receptor 5 (UniProt O60602)
Assay: cell-based or functional assay

| Binder | TLR5 activity (EC50, ng/ml); IL-8 secretion by HEK293 cells [ng/mL] | TLR activity (EC50, ng/ml); IL-8 secretion by HEK293 cells [ng/mL] | other results |
| --- | --- | --- | --- |
| B1 | – | – | TLR-5 EC50 (batch 052); IL-8 secretion by HEK293 cells: > 5000 ng/mL; TLR-5 EC50 (batch 054); IL-8 secretion by HEK293 cells: 1200 ng/mL; TLR-5 EC50 (batch 057); IL-8 secretion by HEK293 cells: 198 ng/mL |
| B2 | 1.2 | – | – |
| B3 | – | 9 | – |
| B4 | – | 9 | – |
| B5 | 0.2 | – | – |
| B6 | 0.15 | – | – |
| B7 | 1.2 | – | – |
| B8 | – | 900 | – |
